Measurements: US7060266
Substitutions are numbered along the chain they refer to.

B1: human brain carboxypeptidase B, 40 kDa protease (prepro-HBCPB) (protein)
chain: ASASYYEQYHSLNEIYSWIEFITERHPDMLTKIHIGSSFEKYPLYVLKVSGKEQTAKNAIWIDCGIHAREWISPAFCLWFIGHNRMWRKNRSFYANNHCIGTDLNSNFVSKHWCEEGASSSSCSETYCGLYPESEPEVKAVASFLRRNINQIKAYISMHSYSQHIVFPYSYTRSKSKDHEELSLVASEAVRAIDKTSKNTRYTHGHGSETLYLAPGGGDDWIYDLGIKYSFTSNPPVEKLLPLSLK
B2: human brain carboxypeptidase B, 30 kDa mature form (protein)
chain: B1 chain with S106R, V109A, D194E

How the values were obtained:
[1] = target: natural brain APP prepared from human hippocampus, P05067
[2] = target: natural brain APP pretreated with chondroitinase ABC, P05067
[3] = target: synthetic Aβ 1-40, P05067
[4] = target: synthetic Aβ 1-42, P05067

Row | Protein | proteolysis of natural brain APP (Western blot with anti Aβ 1/14 antibody) [1] | proteolysis of chondroitinase ABC-pretreated brain APP [2] | digestion of synthetic Aβ 1-40 (Western blot) [3] | digestion of synthetic Aβ 1-42 (Western blot) [4] | proteolytic activity of native-PAGE fractions for natural brain APP [1]
1 | B1 | the 40 kDa protein degraded natural brain APP, generating a 5.5 kDa fragment as the major component of the 3 to 11 kDa Aβ-containing peptides | it was shown that the reaction is almost completely inhibited | low-molecular weight peptides formed in a dose-dependent manner | low-molecular weight peptides formed in a dose-dependent manner | 
2 | B2 |  |  |  |  | fraction 19 with a molecular mass of about 40 kDa and fraction 11 with a molecular mass of about 30 kDa had similar proteolytic activities
